In the experiment the target is MIYEI. The experiment in a line: crystal structure.

The stoichiometry N is a count of units in the complex or per binding partner.

MIYEI returned a stoichiometry N of 2.

The record behind these values is paper doi:10.1101/2025.03.21.644400.
